Results as given in patent publication US20250289893A1 (OXFORD UNIVERSITY INNOVATION, published 2025).

What was measured:
[1] = biological target: T1, human CD1a expressed on cells (human, UniProt P06126 17-327; P61769 21-119); assay: flow cytometry, MOLT4 cells, 0.316 µg/ml antibody
T1 construct: also called HEK - CD1a; C1R - CD1a
Method: (§1) CD1a-specific antibodies were identified by flow cytometry. Binding to proteins expressed on HEK, C1R and MOLT4 cell lines was assessed. […] The C1R-CD1a, C1R-empty vector and MOLT4 cell lines were washed in 1×PBS on the day required. All cell lines were counted and resuspended in 1×PBS and then stained for 30 minutes at 37° C. using the DiI or DiO cellular stains (Invitrogen). Cells were washed with flow cytometry buffer (1% bovine serum albumin, 2 mM EDTA and 0.1% sodium azide in PBS) before mixing 2 DiI-stained and DiO-stained populations together. The cells (20 μl/well) were then added to dilutions of antibody sample (B cell culture supernatant, TAP supernatant, clone supernatant, purified antibody solution) (20 μl/well) and incubated for 1 hour at 4° C. in a flow cytometry assay plate, before being washed with flow cytometry buffer. 10 μl/well of Alexafluor647-conjugated goat anti-species IgG Fc-specific F(ab′)2 fragment (Jackson ImmunoResearch), diluted 1:2500 in flow cytometry buffer, was added and incubated at 4° C. for 30 minutes, followed by washing with wash buffer. The fluorescence intensity was then measured on an iQue screener PLUS.
(§2) Binding was quantified as fold change in fluorescence intensity geomean over background assessed by flow cytometry.

[2] = biological target: T2, Cynomolgus monkey CD1a expressed on HEK-293 cells (Cynomolgus monkey, UniProt A0A2K5VQ68 17-326); assay: flow cytometry, HEK-293 cells, 10 µg/ml antibody
T2 sequence (A0A2K5VQ68 entry or part of it): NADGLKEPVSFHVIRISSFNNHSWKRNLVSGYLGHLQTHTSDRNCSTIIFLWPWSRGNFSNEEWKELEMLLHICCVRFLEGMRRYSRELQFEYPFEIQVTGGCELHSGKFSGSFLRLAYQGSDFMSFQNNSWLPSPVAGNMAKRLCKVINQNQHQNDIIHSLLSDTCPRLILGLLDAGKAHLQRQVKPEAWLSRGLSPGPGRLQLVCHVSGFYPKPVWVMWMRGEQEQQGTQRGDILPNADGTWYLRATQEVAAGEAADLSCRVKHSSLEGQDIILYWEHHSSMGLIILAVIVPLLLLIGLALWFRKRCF
Method: (§3) Binding to proteins expressed on HEK, C1R and MOLT4 cell lines was assessed. […] The C1R-CD1a, C1R-empty vector and MOLT4 cell lines were washed in 1×PBS on the day required. All cell lines were counted and resuspended in 1×PBS and then stained for 30 minutes at 37° C. using the DiI or DiO cellular stains (Invitrogen). Cells were washed with flow cytometry buffer (1% bovine serum albumin, 2 mM EDTA and 0.1% sodium azide in PBS) before mixing 2 DiI-stained and DiO-stained populations together. The cells (20 μl/well) were then added to dilutions of antibody sample (B cell culture supernatant, TAP supernatant, clone supernatant, purified antibody solution) (20 μl/well) and incubated for 1 hour at 4° C. in a flow cytometry assay plate, before being washed with flow cytometry buffer. 10 μl/well of Alexafluor647-conjugated goat anti-species IgG Fc-specific F(ab′)2 fragment (Jackson ImmunoResearch), diluted 1:2500 in flow cytometry buffer, was added and incubated at 4° C. for 30 minutes, followed by washing with wash buffer. The fluorescence intensity was then measured on an iQue screener PLUS.
as §2

[3] = biological target: T3, chimeric CD1a pool B protein [human CD1a lipid binding domain, mouse CD1d Ig domain] (human; mouse, UniProt P06126 18-201; P11609 205-297, limits assumed); assay: ELISA, 3.16 µg/ml antibody
T3 sequence (P06126 other isoform, or with tags, fused parts or gaps mutant limits assumed): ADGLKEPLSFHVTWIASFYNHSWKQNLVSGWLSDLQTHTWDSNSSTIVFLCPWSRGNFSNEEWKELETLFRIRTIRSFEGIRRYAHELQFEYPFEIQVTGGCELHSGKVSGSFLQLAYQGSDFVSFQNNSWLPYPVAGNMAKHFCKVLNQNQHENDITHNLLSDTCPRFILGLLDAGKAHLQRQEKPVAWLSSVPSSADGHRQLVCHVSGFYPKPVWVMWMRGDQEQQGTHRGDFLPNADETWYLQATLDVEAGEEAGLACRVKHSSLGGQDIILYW
Method: (§4) CD1a-specific antibodies were identified by ELISA. […] 20 μl/well of peroxidase-conjugated goat anti-species IgG Fc-specific F(ab′)2 fragment (Jackson ImmunoResearch), diluted 1:5000 in block buffer was added and incubated at room temperature for 1 hour, followed by washing with wash buffer.
(§5) The antibodies were titrated through a dilution series and compared to a control rabbit IgG antibody. […] Data shown for purified antibodies.

[4] = biological target: T3, chimeric CD1a pool B protein [human …; assay: ELISA, 0.316 µg/ml antibody
Method: as §4, §5

[5] = biological target: Chinese variant CD1a protein (human) (UniProt P06126); assay: ELISA, 0.01 µg/ml antibody
Chinese variant CD1a protein (human), sequence (P06126 18-295, stated change not applied): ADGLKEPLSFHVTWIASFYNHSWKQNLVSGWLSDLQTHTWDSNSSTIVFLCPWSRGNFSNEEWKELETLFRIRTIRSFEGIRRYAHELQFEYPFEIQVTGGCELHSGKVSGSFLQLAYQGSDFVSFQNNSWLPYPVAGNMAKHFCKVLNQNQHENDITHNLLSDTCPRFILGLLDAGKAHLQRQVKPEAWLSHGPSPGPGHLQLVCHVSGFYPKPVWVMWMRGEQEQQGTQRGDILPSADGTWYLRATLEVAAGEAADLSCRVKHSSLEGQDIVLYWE

[6] = biological target: T4, human CD1d expressed on HEK-293 cells (human, UniProt P15813 20-335; P61769 21-119); assay: flow cytometry, HEK-293 cells
T4 construct: also called HEK - CD1d
Method: as §3
(§6) HEK-293 cells were transiently transfected with human CD1a, CD1b, CD1c or CD1d and co-transfected with human β2M.

[7] = biological target: T5, human CD1b expressed on HEK-293 cells (human, UniProt P29016 18-333; P61769 21-119); assay: flow cytometry, HEK-293 cells
T5 construct: also called HEK - CD1b
Method: as §3, §6

[8] = biological target: T6, human CD1c expressed on HEK-293 cells (human, UniProt P29017 18-333; P61769 21-119); assay: flow cytometry, HEK-293 cells
T6 construct: also called HEK - CD1c
Method: as §3, §6

[9] = biological target: T1, human CD1a expressed on cells; assay: flow cytometry, C1R cells, 31.6 µg/ml antibody
Method: as §3, §2

[10] = biological target: T7, Cynomolgus monkey CD1a protein (Cynomolgus monkey); assay: ELISA, 0.01 µg/ml antibody
T7 chain: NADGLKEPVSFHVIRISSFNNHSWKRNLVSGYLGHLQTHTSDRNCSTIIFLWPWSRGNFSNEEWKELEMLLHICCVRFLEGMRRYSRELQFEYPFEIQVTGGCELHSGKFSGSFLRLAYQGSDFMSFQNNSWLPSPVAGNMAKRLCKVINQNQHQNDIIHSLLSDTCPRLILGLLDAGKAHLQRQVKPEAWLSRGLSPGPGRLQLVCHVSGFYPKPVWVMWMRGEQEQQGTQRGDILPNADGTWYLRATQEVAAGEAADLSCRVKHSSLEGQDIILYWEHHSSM

[11] = biological target: T2, Cynomolgus monkey CD1a expressed on …; assay: flow cytometry, HEK-293 cells, 0.1 µg/ml antibody
Method: as §3, §2

[12] = biological target: T8, human CD1a protein (pool B) (human, UniProt P06126 18-295, limits assumed); assay: SPR (Biacore T200), antibody captured, human CD1a titrated, 1:1 binding model
T8 construct: Recombinant protein of the ELISA (coated) and the Biacore T200 titration; whole entry named; also called human CD1a pool B; full length CD1a
T8 sequence (P06126 18-295 limits assumed): as the sequence (P06126 18-295, stated change not applied) above
Method: The affinity of the purified antibodies to human CD1a was assessed using a Biacore T200 instrument (GE Healthcare) by capturing the antibody to an immobilized anti-species IgG F(ab′)2 followed by titration of human CD1a. Affinipure Goat anti-species IgG-F(ab′)2 fragment specific (Jackson ImmunoResearch) was immobilized on a CM5 Sensor Chip (GE Healthcare) via amine coupling chemistry to a capture level of ˜5000 response units (RUs). HBS-EP+ buffer (10 mM HEPES pH 7.4, 0.15 M NaCl, 3 mM EDTA, 0.05% Surfactant P20, GE Healthcare) was used as the running buffer with a flow rate of 10 μL/min. A 10 μL injection of test antibody at 0.5 μg/mL was used for capture by the immobilized Goat Anti-species Fab.
The surface was regenerated between cycles by injection of 2×10 μL of 40 mM HCl, interspersed by a 10 μL injection of 5 mM NaOH at flowrate of 10 μL/min. Background subtraction binding curves were analyzed using the Biacore T200 evaluation software following standard procedures. Kinetic parameters were determined from the fitting algorithm. This assay was performed at the clone supernatant and purified antibody stage.
Affinity was required to be <100 nM to be considered for progression.

[13] = biological target: T7, Cynomolgus monkey CD1a protein; assay: ELISA, 1 µg/ml antibody
[14] = biological target: T8, human CD1a protein (pool B); assay: ELISA, 0.1 µg/ml antibody
Method: as §4
(§7) The antibodies were titrated through a dilution series and compared to a control rabbit IgG antibody.

[15] = biological target: T1, human CD1a expressed on cells; assay: flow cytometry, MOLT4 cells, 10 µg/ml antibody
Method: as §1, §2

[16] = biological target: T8, human CD1a protein (pool B); assay: ELISA, 1 µg/ml antibody
Method: as §4, §7

[17] = biological target: T8, human CD1a protein (pool B); assay: ELISA, 10 µg/ml antibody
Method: as §4, §7

[18] = biological target: T3, chimeric CD1a pool B protein [human …; assay: ELISA, 0.0316 µg/ml antibody
Method: as §4, §5

[19] = biological target: Chinese variant CD1a protein (human) (UniProt P06126); assay: ELISA, 10 µg/ml antibody
[20] = biological target: T8, human CD1a protein (pool B); assay: ELISA, 0.0316 µg/ml antibody
Method: as §4, §7

[21] = biological target: T7, Cynomolgus monkey CD1a protein; assay: ELISA, 0.1 µg/ml antibody
[22] = biological target: Chinese variant CD1a protein (human) (UniProt P06126); assay: ELISA, 1 µg/ml antibody
[23] = biological target: T1, human CD1a expressed on cells; assay: flow cytometry, C1R cells, 10 µg/ml antibody
Method: as §3, §2

[24] = biological target: T1, human CD1a expressed on cells; assay: flow cytometry, HEK-293 cells, 1 µg/ml antibody
Method: as §3, §6

[25] = biological target: T4, human CD1d expressed on HEK-293 cells; assay: flow cytometry, HEK-293 cells, 1 µg/ml antibody
Method: as §3, §6

[26] = biological target: T5, human CD1b expressed on HEK-293 cells; assay: flow cytometry, HEK-293 cells, 1 µg/ml antibody
Method: as §3, §6

[27] = biological target: T6, human CD1c expressed on HEK-293 cells; assay: flow cytometry, HEK-293 cells, 1 µg/ml antibody
Method: as §3, §6

B1: 116 (VR12117) (antibody, V domains shown)
VH: QSVEESGGRLVTPGTPLTLTCTVSGFSLSNYAMSWVRQAPGKGLEWIGIIYTTGFTYYASWVKGRFTISKTSTTVDLKITSPTTEDTATYFCARGLATYVSPPTRLDLWGQGTLVTVSS
VL: AQVLTQTPSPVSAAVGGTVTINCQASQSIYNSKNLAWYQQKPGQPPKLLIYSASTLASGVPSRFKGSGSGTQFTLTISDLECDDAATYYCQGEFSCSSVDCATFGGGTEVVVK
notes: also called OX116
- Fluorescence Intensity Geomean (normalized to background) [1]: 29.6 fold over background
- Fluorescence Intensity Geomean (normalized to background) [2]: 1.7 fold over background
- Optical Density (OD) [3]: 1.38 OD
- Optical Density (OD) [4]: 1.32 OD
- Optical Density (OD) [5]: 1.47 OD
- binding result [6]: no binding (tested: 100 µg/ml (highest tested))
- binding result [7]: no binding (tested: 100 µg/ml (highest tested))
- binding result [8]: no binding (tested: 100 µg/ml (highest tested))
- Fluorescence Intensity Geomean (normalized to background) [9]: 13.7 fold over background
- Optical Density (OD) [10]: 0.07 OD
- Fluorescence Intensity Geomean (normalized to background) [11]: 1 fold over background
- Kd [12]: 2.89 nM
- koff [12]: 0.0014 s⁻¹
- kon [12]: 483000 M⁻¹ s⁻¹
- Optical Density (OD) [13]: 0.14 OD
- Optical Density (OD) [14]: 1.07 OD
- Fluorescence Intensity Geomean (normalized to background) [15]: 11.7 fold over background
- Optical Density (OD) [16]: 1.15 OD
- Optical Density (OD) [17]: 1.18 OD
- Optical Density (OD) [18]: 1.13 OD
- Optical Density (OD) [19]: 1.51 OD
- Optical Density (OD) [20]: 0.95 OD
- Optical Density (OD) [21]: 0.07 OD
- Optical Density (OD) [22]: 1.51 OD
- Fluorescence Intensity Geomean (normalized to background) [23]: 16.9 fold over background
- Fluorescence Intensity Geomean (normalized to background) [24]: 48.2 fold over background
- Fluorescence Intensity Geomean (normalized to background) [25]: 1 fold over background
- Fluorescence Intensity Geomean (normalized to background) [26]: 1.1 fold over background
- Fluorescence Intensity Geomean (normalized to background) [27]: 1.1 fold over background
